The record followed here is publication PMC9158119 (Frontiers in Immunology, 2022).

By Kd is commonly meant the concentration at which binding is half-saturated. Read a high Kd as a looser complex.

To fix the notation:
B1: Nb-003 (VHH)
VHH: EVQVVESGGGLVQAGGSLRVSCAASGSTSSRYIMAWYRQAPGKQRELVASITLVGATIYKDSVKGRFTISGDNAKKTVYLQMNNLKPEDTAVYYCNQIDPLIGGPGYWGQGIQVTVSS
B2: Nb-005 (VHH)
VHH: EVQLVESGGGLVQAGGSLRLSCAASGSAFNDYAMGWYRQAPGKQRELVARFTNVGATLSSNSVKGRFTISRDNAKNTVFLQMNSLKPEDTAVYYCHAGHRILLGREYWGQGTQVTVSS
B3: Nb-002 (VHH)
VHH: EVQLVESGGALVQPGGSLRLSCAASGFTLDAAAIGWFRQAPGKEREWVSCINRVGGGFYSDSAKGRFTISRDNDKNTVYLQMNSLKFEDTAVYYCAADSDSPRFGCSDSRARYEYWGQGTQVTASS
B4: Nb-001 (VHH)
VHH: EVQLVESGGGLVQAGGSLRLSCAASGSIFRLYTIDWYRQAPGKQRELVATISGTSPTNYADSVKGRATISRDNAKNTVYLQINSLKPEDTAVYYCHTVSGNTWGQGTQVTVSS
B5: Nb-008 (VHH)
VHH: EVQVVESGGGLVQAGGSLRLSCAASGSTSNLRVTGWYRQTPGKQRELVAAISNAGATVYPDSVAGRFTLSRDNAKNTVTLQINSLKPEDTAVYYCNARRFGRDYWGQGTQVTVSS
B6: Nb-010 (VHH)
VHH: EVQVVESGGGLVQAGGSLRLSCTASGSTFTRYPMGWYRQAPGKQRELVAGFTVVGATIYADSVKGRFALSRDNAKKTIDLQLDSLKPDDTGVYYCSMYTYWGQGTQVTVSS
B7: Nb-006 (VHH)
VHH: QVQLVESGGGLVQAGESLRLSCAASGSTVSPYTMGWYRQAPGKQREWVATIRSDRSTNYADSVLGRFTISRDNAKNTVYLQMNSLKPEDTAVYQCYALQGGLLLGQGTQVTVSS
B8: Nb-004 (VHH)
VHH: QLQLVESGGGLVQAGGSLGLSCAASGITLGDYRMGWYRQAPGKQRELVARFTNAGAILYGDSVKGRFTISMNNAKNTVYLQINSLKPEDTAVYYCNARTTRGIDNWGQGTQVTVSS
B9: Nb-007 (VHH)
VHH: QLQLVESGGGLVQAGGSMRLSCAASISFSSFPMGWHRQAPGKQRELVAKTGIGGTAYDDSVKGRFTISRDNTKNTVYLQMNSLKVEDTAVYYCWGWRMNDYWGQGTQVTVSS

The target of one assay is T1, SARS-CoV-2 original strain spike receptor-binding domain (S-RBD) (SARS-CoV-2, UniProt P0DTC2).
Test: not given
Settings: not given
B1: the binding result is “binds”. The same measure, in the same setting: the value for B2 was “binds”; that for B3 was “binds”. For B4, the binding result is “binds”. The same measure, in the same setting: the value for B5 was “binds”. Same read-out and setting: the value for B6 was “binds”. For the molecule B7, the binding result is given as “binds”. The same measure, in the same setting: the value for B8 was “binds”.

Another assay concerns the target T1, SARS-CoV-2 original strain spike …. Put plainly: SPR. Particulars: both partners purified.
In turn, B9 registered a Kd of 0.0674 nM.
